Laboratory results as given in patent publication US10344077.

Tests used:
Centromere B [1] = molecular target: T1, Centromere B (UniProt P07199); test: AtheNA, Ab 25 ug/ml
T1 sequence (looked up): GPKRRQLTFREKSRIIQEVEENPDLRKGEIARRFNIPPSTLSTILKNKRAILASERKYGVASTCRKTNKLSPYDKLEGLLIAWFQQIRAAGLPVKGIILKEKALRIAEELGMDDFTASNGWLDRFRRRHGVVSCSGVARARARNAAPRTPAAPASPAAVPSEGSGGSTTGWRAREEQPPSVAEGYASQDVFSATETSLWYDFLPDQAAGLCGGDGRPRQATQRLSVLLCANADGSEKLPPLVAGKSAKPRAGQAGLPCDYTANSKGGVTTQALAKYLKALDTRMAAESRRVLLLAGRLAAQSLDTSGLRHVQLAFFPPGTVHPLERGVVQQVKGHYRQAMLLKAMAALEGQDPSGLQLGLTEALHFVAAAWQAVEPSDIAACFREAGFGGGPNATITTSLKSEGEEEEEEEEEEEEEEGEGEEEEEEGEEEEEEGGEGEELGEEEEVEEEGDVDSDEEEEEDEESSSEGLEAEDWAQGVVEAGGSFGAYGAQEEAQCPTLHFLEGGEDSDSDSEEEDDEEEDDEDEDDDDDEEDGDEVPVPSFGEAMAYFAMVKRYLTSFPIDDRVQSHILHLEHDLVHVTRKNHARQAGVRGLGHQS

Histones [2] = test: AtheNA, Ab 25 ug/ml
Jo-1 [3] = molecular target: T2, Jo-1 (UniProt P12081); test: AtheNA, Ab 25 ug/ml
T2 sequence (looked up): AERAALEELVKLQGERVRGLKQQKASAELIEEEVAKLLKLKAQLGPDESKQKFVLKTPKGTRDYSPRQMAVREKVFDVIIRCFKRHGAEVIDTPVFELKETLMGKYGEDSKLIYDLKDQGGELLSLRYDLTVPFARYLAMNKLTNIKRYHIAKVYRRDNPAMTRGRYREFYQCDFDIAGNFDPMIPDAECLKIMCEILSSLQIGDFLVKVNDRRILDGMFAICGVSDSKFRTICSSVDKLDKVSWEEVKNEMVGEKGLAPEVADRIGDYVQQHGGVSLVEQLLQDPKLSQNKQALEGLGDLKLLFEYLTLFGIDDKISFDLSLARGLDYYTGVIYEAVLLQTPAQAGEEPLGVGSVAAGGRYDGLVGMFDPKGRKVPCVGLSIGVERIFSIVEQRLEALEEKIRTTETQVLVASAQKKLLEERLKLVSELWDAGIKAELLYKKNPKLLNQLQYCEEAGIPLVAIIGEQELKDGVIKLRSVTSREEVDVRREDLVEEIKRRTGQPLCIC

RNP (ribonucleoprotein) [4] = test: AtheNA, Ab 25 ug/ml
SSA [5] = test: AtheNA, Ab 25 ug/ml
SSB [6] = molecular target: SSB (UniProt P05455); test: AtheNA, Ab 25 ug/ml
SSB, sequence (P05455 whole entry): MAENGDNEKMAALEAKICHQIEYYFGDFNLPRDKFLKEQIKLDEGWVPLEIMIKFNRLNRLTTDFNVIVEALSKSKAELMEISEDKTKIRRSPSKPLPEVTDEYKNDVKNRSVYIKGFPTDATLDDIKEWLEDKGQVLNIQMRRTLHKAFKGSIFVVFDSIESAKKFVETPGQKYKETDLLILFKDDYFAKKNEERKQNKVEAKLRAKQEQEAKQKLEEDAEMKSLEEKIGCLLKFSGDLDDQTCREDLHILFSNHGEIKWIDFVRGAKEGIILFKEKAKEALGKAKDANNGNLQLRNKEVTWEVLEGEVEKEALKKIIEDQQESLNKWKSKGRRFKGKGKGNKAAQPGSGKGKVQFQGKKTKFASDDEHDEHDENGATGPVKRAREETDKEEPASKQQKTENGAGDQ

Scl-70 [7] = molecular target: Scl-70 (UniProt P11387); test: AtheNA, Ab 25 ug/ml
Scl-70, sequence (P11387 2-765 limits assumed): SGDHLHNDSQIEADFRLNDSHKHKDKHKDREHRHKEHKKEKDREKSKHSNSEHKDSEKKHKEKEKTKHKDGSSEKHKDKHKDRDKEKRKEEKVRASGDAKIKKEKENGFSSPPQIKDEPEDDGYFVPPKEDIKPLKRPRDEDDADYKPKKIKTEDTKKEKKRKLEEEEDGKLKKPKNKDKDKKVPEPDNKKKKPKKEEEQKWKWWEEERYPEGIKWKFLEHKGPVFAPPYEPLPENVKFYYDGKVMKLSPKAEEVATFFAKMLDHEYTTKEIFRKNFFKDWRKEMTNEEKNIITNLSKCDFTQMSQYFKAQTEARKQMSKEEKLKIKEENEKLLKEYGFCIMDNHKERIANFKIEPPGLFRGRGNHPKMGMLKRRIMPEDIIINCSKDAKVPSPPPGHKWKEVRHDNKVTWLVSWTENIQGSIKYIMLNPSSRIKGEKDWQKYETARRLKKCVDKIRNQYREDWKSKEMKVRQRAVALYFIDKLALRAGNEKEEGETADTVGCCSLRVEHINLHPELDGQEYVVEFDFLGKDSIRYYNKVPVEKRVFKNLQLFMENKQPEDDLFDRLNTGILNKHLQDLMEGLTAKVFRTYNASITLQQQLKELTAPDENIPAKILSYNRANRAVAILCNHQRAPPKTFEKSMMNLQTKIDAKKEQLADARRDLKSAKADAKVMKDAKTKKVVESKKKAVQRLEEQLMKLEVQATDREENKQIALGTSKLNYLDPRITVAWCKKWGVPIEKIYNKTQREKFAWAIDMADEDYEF

Sm (Smith antigen) [8] = test: AtheNA, Ab 25 ug/ml
Centromere B [9] = molecular target: T1, Centromere B; test: AtheNA, Ab 25 ug/ml; remark: listed apart in the source
Histones [10] = test: AtheNA, Ab 25 ug/ml; remark: listed apart in the source
Jo-1 [11] = molecular target: T2, Jo-1; test: AtheNA, Ab 25 ug/ml; remark: listed apart in the source
RNP (ribonucleoprotein) [12] = test: AtheNA, Ab 25 ug/ml; remark: listed apart in the source
SSA [13] = test: AtheNA, Ab 25 ug/ml; remark: listed apart in the source
SSB [14] = molecular target: SSB (UniProt P05455); test: AtheNA, Ab 25 ug/ml; remark: listed apart in the source
Sm (Smith antigen) [15] = test: AtheNA, Ab 25 ug/ml; remark: listed apart in the source
Centromere B [16] = molecular target: T1, Centromere B; test: AtheNA, Ab 12.5 ug/ml
Histones [17] = test: AtheNA, Ab 12.5 ug/ml
Jo-1 [18] = molecular target: T2, Jo-1; test: AtheNA, Ab 12.5 ug/ml
RNP (ribonucleoprotein) [19] = test: AtheNA, Ab 12.5 ug/ml
SSA [20] = test: AtheNA, Ab 12.5 ug/ml
SSB [21] = molecular target: SSB (UniProt P05455); test: AtheNA, Ab 12.5 ug/ml
Scl-70 [22] = molecular target: Scl-70 (UniProt P11387); test: AtheNA, Ab 12.5 ug/ml
Sm (Smith antigen) [23] = test: AtheNA, Ab 12.5 ug/ml
Centromere B [24] = molecular target: T1, Centromere B; test: AtheNA, Ab 6.25 ug/ml
Histones [25] = test: AtheNA, Ab 6.25 ug/ml
Jo-1 [26] = molecular target: T2, Jo-1; test: AtheNA, Ab 6.25 ug/ml
RNP (ribonucleoprotein) [27] = test: AtheNA, Ab 6.25 ug/ml
SSA [28] = test: AtheNA, Ab 6.25 ug/ml
SSB [29] = molecular target: SSB (UniProt P05455); test: AtheNA, Ab 6.25 ug/ml
Scl-70 [30] = molecular target: Scl-70 (UniProt P11387); test: AtheNA, Ab 6.25 ug/ml
Sm (Smith antigen) [31] = test: AtheNA, Ab 6.25 ug/ml
Scl-70 [32] = molecular target: Scl-70 (UniProt P11387); test: AtheNA, Ab 25 ug/ml; remark: listed apart in the source
Centromere B [33] = molecular target: T1, Centromere B; test: AtheNA, Ab 50 ug/ml
Histones [34] = test: AtheNA, Ab 50 ug/ml
Jo-1 [35] = molecular target: T2, Jo-1; test: AtheNA, Ab 50 ug/ml
RNP (ribonucleoprotein) [36] = test: AtheNA, Ab 50 ug/ml
SSA [37] = test: AtheNA, Ab 50 ug/ml
SSB [38] = molecular target: SSB (UniProt P05455); test: AtheNA, Ab 50 ug/ml
Scl-70 [39] = molecular target: Scl-70 (UniProt P11387); test: AtheNA, Ab 50 ug/ml
Sm (Smith antigen) [40] = test: AtheNA, Ab 50 ug/ml

synagis (antibody) showed an Athena reading (relative luminescence units) (Centromere B [1]) of 4, an Athena reading (relative luminescence units) (Histones [2]) of 5 and an Athena reading (relative luminescence units) (Jo-1 [3]) of 2. It also gave an Athena reading (relative luminescence units) (RNP (ribonucleoprotein) [4]) of 4, an Athena reading (relative luminescence units) (SSA [5]) of 3 and an Athena reading (relative luminescence units) (SSB [6]) of 7. The Athena reading (relative luminescence units) (Scl-70 [7]) was 2, the Athena reading (relative luminescence units) (Sm (Smith antigen) [8]) was 3 and the Athena reading (relative luminescence units) (Centromere B [9]) was 2. It also gave an Athena reading (relative luminescence units) (Histones [10]) of 2, an Athena reading (relative luminescence units) (Jo-1 [11]) of 4 and an Athena reading (relative luminescence units) (RNP (ribonucleoprotein) [12]) of 0. It also gave an Athena reading (relative luminescence units) (SSA [13]) of 11, an Athena reading (relative luminescence units) (SSB [14]) of 4 and an Athena reading (relative luminescence units) (Sm (Smith antigen) [15]) of 4. The Athena reading (relative luminescence units) (Centromere B [16]) was 2, the Athena reading (relative luminescence units) (Histones [17]) was 3 and the Athena reading (relative luminescence units) (Jo-1 [18]) was 6. The Athena reading (relative luminescence units) (RNP (ribonucleoprotein) [19]) was 3, the Athena reading (relative luminescence units) (SSA [20]) was 2 and the Athena reading (relative luminescence units) (SSB [21]) was 5. For the same substance, the Athena reading (relative luminescence units) (Scl-70 [22]) was 3, the Athena reading (relative luminescence units) (Sm (Smith antigen) [23]) was 7 and the Athena reading (relative luminescence units) (Centromere B [24]) was 2. The Athena reading (relative luminescence units) (Histones [25]) was 3, the Athena reading (relative luminescence units) (Jo-1 [26]) was 1 and the Athena reading (relative luminescence units) (RNP (ribonucleoprotein) [27]) was 3. The Athena reading (relative luminescence units) (SSA [28]) was 2, the Athena reading (relative luminescence units) (SSB [29]) was 5 and the Athena reading (relative luminescence units) (Scl-70 [30]) was 2. The Athena reading (relative luminescence units) (Sm (Smith antigen) [31]) was 2.
In the case of CH235UA/293i (antibody), the Athena reading (relative luminescence units) (Centromere B [9]) was 3, the Athena reading (relative luminescence units) (Histones [10]) was 3 and the Athena reading (relative luminescence units) (Jo-1 [11]) was 5. For the same substance, the Athena reading (relative luminescence units) (RNP (ribonucleoprotein) [12]) was 4, the Athena reading (relative luminescence units) (SSA [13]) was 9 and the Athena reading (relative luminescence units) (SSB [14]) was 3. It also gave an Athena reading (relative luminescence units) (Scl-70 [32]) of 3, an Athena reading (relative luminescence units) (Sm (Smith antigen) [15]) of 6 and an Athena reading (relative luminescence units) (Centromere B [16]) of 3. For the same substance, the Athena reading (relative luminescence units) (Histones [17]) was 4, the Athena reading (relative luminescence units) (Jo-1 [18]) was 5 and the Athena reading (relative luminescence units) (RNP (ribonucleoprotein) [19]) was 3. For the same substance, the Athena reading (relative luminescence units) (SSA [20]) was 9, the Athena reading (relative luminescence units) (SSB [21]) was 4 and the Athena reading (relative luminescence units) (Scl-70 [22]) was 3. It also gave an Athena reading (relative luminescence units) (Sm (Smith antigen) [23]) of 6, an Athena reading (relative luminescence units) (Centromere B [24]) of 2 and an Athena reading (relative luminescence units) (Histones [25]) of 2. For the same substance, the Athena reading (relative luminescence units) (Jo-1 [26]) was 3, the Athena reading (relative luminescence units) (RNP (ribonucleoprotein) [27]) was 2 and the Athena reading (relative luminescence units) (SSA [28]) was 10. For the same substance, the Athena reading (relative luminescence units) (SSB [29]) was 5, the Athena reading (relative luminescence units) (Scl-70 [30]) was 3 and the Athena reading (relative luminescence units) (Sm (Smith antigen) [31]) was 5.
DH270IA1 (antibody) was tested, and the Athena reading (Centromere B [1]) was 5, the Athena reading (Histones [2]) was 4 and the Athena reading (Jo-1 [3]) was 3. It also gave an Athena reading (RNP (ribonucleoprotein) [4]) of 2, an Athena reading (SSA [5]) of 3 and an Athena reading (SSB [6]) of 6. The Athena reading (Scl-70 [7]) was 1, the Athena reading (Sm (Smith antigen) [8]) was 5 and the Athena reading (Centromere B [33]) was 10. The Athena reading (Histones [34]) was 9, the Athena reading (Jo-1 [35]) was 5 and the Athena reading (RNP (ribonucleoprotein) [36]) was 2. For the same substance, the Athena reading (SSA [37]) was 5, the Athena reading (SSB [38]) was 6 and the Athena reading (Scl-70 [39]) was 4. For the same substance, the Athena reading (Sm (Smith antigen) [40]) was 5, the Athena reading (Centromere B [16]) was 3 and the Athena reading (Histones [17]) was 4. The Athena reading (Jo-1 [18]) was 6, the Athena reading (RNP (ribonucleoprotein) [19]) was 3 and the Athena reading (SSA [20]) was 3. It also gave an Athena reading (SSB [21]) of 6, an Athena reading (Scl-70 [22]) of 2 and an Athena reading (Sm (Smith antigen) [23]) of 5. It also gave an Athena reading (Centromere B [24]) of 2, an Athena reading (Histones [25]) of 2 and an Athena reading (Jo-1 [26]) of 5. It also gave an Athena reading (RNP (ribonucleoprotein) [27]) of 2, an Athena reading (SSA [28]) of 5 and an Athena reading (SSB [29]) of 1. The Athena reading (Scl-70 [30]) was 2 and the Athena reading (Sm (Smith antigen) [31]) was 3.
